From patent US20110135636A1 (SYMPHOGEN A S, published 2011)

Experiments:
[1] = target: T1, recombinant human EGFR extracellular domain with 6xHis (human, UniProt P00533 25-645); assay: SPR competition, competitor 992 corr
T1 construct: In-house produced; also called 6xHis EGFR ECD; soluble human EGFR ECD; not shown: 6xHis tag
Experimental: (§1) SPR analysis was performed on a Biacore 3000 machine containing four flow cells. A CM5 Biacore chip was conjugated with 10,000 Resonance units (Ru) polyclonal anti-His antibody to flow cells 1-4 according to the manufacturer's instructions. […] Immediately after antigen injection the maximal binding of the Anti-EGFR mAb without competition was established in each flow cell during a reference run. Briefly 5 μl antibody at a concentration of 40 μg/ml was injected over all flow cells with captured EGFR followed by stripping of the antibody/antigen complex with a low pH acid wash (10 sec. contact time with 10 mM Glycine-HCl, pH2). After the determination of Anti-EGFR antibody maximal binding to each flow cell, a competition run was performed during the same Biacore cycle. Flow cells were first saturated with EGFR ECD antigen followed by injection of different reference antibodies or Anti-EGFR antibodies into separate flow cells using the same antigen saturating conditions as outlined above. This step was immediately followed by a second injection of Anti-EGFR antibody over the flow cell saturated with EGFR antigen and competition antibody to minimize the dissociation of either antigen or blocking antibody. Then the antibody/antigen complexes were stripped off with a low pH acid wash (10 sec. contact time with 10 mM Glycine-HCl, pH 2) and the whole cycle beginning with the reference run was repeated with a new Anti-EGFR antibody. The degree of inhibition of tested Anti-EGFR antibodies were determined by comparing the Ru max value of the individual Anti-EGFR antibody before and after competition by introduction of report points recorded two seconds before and after injection of each sample.

[2] = target: T2, wild type full length EGFR purified from A431 cells (human, UniProt P00533 25-1210); assay: competition ELISA, competitor Ab-2; parameters: concentration or dose not given beside the values
T2 construct: mature; Bought; coated on ELISA wells; also called full length EGFR receptor antigen; Sigma E3641
Experimental: (§2) The ELISA was adapted from the descriptions published in Ditzel et al, 1995, The Journal of Immunology, Vol 154, Issue 2 893-906.
(§3) An epitope blocking ELISA was performed by diluting full length EGFR receptor antigen to 0.5 μg/ml in PBS; and coating 50 μl/ELISA well overnight at 4° C. […] Finally wells were washed four times with PBS-T and plates were developed by adding 50 μl/well TMB and read at 620 nm every 5-15-30 min. The degree of inhibition was calculated from the formula: % inhibition=(1−(OD competition/OD no competition (PBS)))×100.

[3] = target: T1, recombinant human EGFR extracellular …; assay: SPR competition, competitor Ab-11
Experimental: as §1

[4] = target: T1, recombinant human EGFR extracellular …; assay: SPR competition, competitor Vectibix
Experimental: as §1

[5] = target: T2, wild type full length EGFR purified …; assay: competition ELISA, competitor Ab-11; parameters: concentration or dose not given beside the values
Experimental: as §2, §3

[6] = target: T1, recombinant human EGFR extracellular …; assay: SPR competition, competitor Vectibix; remark: listed apart in the source
Experimental: as §1

[7] = target: T1, recombinant human EGFR extracellular …; assay: SPR competition, competitor Ab-10
Experimental: as §1

[8] = target: T1, recombinant human EGFR extracellular …; assay: SPR competition, competitor Ab-1
Experimental: as §1

[9] = target: T1, recombinant human EGFR extracellular …; assay: SPR competition, competitor 1042
Experimental: as §1

[10] = target: T2, wild type full length EGFR purified …; assay: competition ELISA, competitor ICR10; parameters: concentration or dose not given beside the values
Experimental: as §2, §3

[11] = target: T1, recombinant human EGFR extracellular …; assay: SPR competition, competitor Ab-5
Experimental: as §1

[12] = target: T1, recombinant human EGFR extracellular …; assay: SPR competition, competitor 1449
Experimental: as §1

[13] = target: T1, recombinant human EGFR extracellular …; assay: SPR competition, competitor Erbitux
Experimental: as §1

[14] = target: T1, recombinant human EGFR extracellular …; assay: SPR competition, competitor Erbitux; remark: listed apart in the source
Experimental: as §1

[15] = target: T2, wild type full length EGFR purified …; assay: competition ELISA, competitor Ab-10; parameters: concentration or dose not given beside the values
Experimental: as §2, §3

[16] = target: T2, wild type full length EGFR purified …; assay: competition ELISA, competitor Ab-1; parameters: concentration or dose not given beside the values
Experimental: as §2, §3

[17] = target: T3, Cynomolgus EGFR extracellular domain (Cynomolgus monkey (Macaca fascicularis), UniProt P55245 25-645 (rhesus entry)); assay: ELISA on cynomolgus EGFR ECD (Example 10)
T3 construct: Cloned without signal peptide; also called Cynomolgus rEGFR ECD; Cynomolgus EGFR ECD
Experimental: To verify that tested Anti-EGFR antibodies bound equally well to both Human and Cynomolgus EGFR ECD and accordingly warranting toxicology studies in Cynomolgus monkeys, serial four fold dilutions of antibodies beginning from 1 μg/ml were tested by ELISA for binding to recombinant Human and Cynomolgus EGFR ECD proteins. […] ELISA wells were coated with 50 μl/well of full length EGFR at a concentration of 1 μg/ml in PBS overnight at 4° C. The next morning wells were washed twice with PBS-T and blocked for one hour with 100 μl PBS-T-1% BSA at room temperature, followed by wash twice in PBS-T. Next 50 μl of serially diluted Anti-EGFR antibodies and control antibodies were added to wells and incubated for one hour at room temperature. After antibody incubation wells were washed five times with PBS-T, followed by incubation with 50 μl/well Streptavidin-HRP secondary reagent diluted 1:3000 in blocking buffer and incubation at room temperature for 30 min. Finally wells were washed five times with PBS-T and plates were developed by adding 50 μL/well TMB substrate and incubated at room temperature. After incubation the reaction was stopped by addition of 1 M H₂SO₄; 100 μl/well and plates were read at OD 450 nm.

[18] = target: T2, wild type full length EGFR purified …; assay: competition ELISA, competitor Ab-5; parameters: concentration or dose not given beside the values
Experimental: as §2, §3

[19] = target: T1, recombinant human EGFR extracellular …; assay: SPR competition, competitor Ab-3
Experimental: as §1

[20] = target: T2, wild type full length EGFR purified …; assay: competition ELISA, competitor Ab-3; parameters: concentration or dose not given beside the values
Experimental: as §2, §3

[21] = target: T1, recombinant human EGFR extracellular …; assay: SPR competition, competitor ICR10
Experimental: as §1

[22] = target: T1, recombinant human EGFR extracellular …; assay: SPR competition, competitor 1254
Experimental: as §1

[23] = target: T1, recombinant human EGFR extracellular …; assay: SPR competition, competitor 1260
Experimental: as §1

[24] = target: T1, recombinant human EGFR extracellular …; assay: SPR (BIAcore 2000); IgG captured on anti-human Fc, soluble monovalent EGFR ECD injected
Experimental: Kinetic analysis of the full length IgG antibodies of the invention was performed on a BIAcore 2000, employing an assay as described in (Canziani, Klakamp, et al. 2004, Anal. Biochem, 325:301-307) allowing measurement of monovalent affinities of whole IgG molecules against soluble antigen. […] The chip surface was regenerated in between cycles by stripping the captured antibody/antigen complexes with a 10 second injection of 100 mM H₃PO₄. […] The association rate constant (ka) and dissociation constant (kd) were evaluated globally from the generated sensograms with the BIA evaluation software 4.1 provided by the manufacturer.

[25] = target: T1, recombinant human EGFR extracellular …; assay: SPR competition, competitor 1261
Experimental: as §1

[26] = target: T1, recombinant human EGFR extracellular …; assay: SPR competition, competitor 1308
Experimental: as §1

[27] = target: T1, recombinant human EGFR extracellular …; assay: SPR competition, competitor 1347
Experimental: as §1

[28] = target: T1, recombinant human EGFR extracellular …; assay: SPR competition, competitor 1257
Experimental: as §1

[29] = target: T1, recombinant human EGFR extracellular …; assay: SPR competition, competitor 1344
Experimental: as §1

[30] = target: T1, recombinant human EGFR extracellular …; assay: SPR competition, competitor 1284
Experimental: as §1

[31] = target: T1, recombinant human EGFR extracellular …; assay: SPR competition, competitor 1030corr
Experimental: as §1

[32] = target: T1, recombinant human EGFR extracellular …; assay: SPR competition, competitor 1024
Experimental: as §1

[33] = target: T1, recombinant human EGFR extracellular …; assay: SPR competition, competitor 1277
Experimental: as §1

[34] = target: T1, recombinant human EGFR extracellular …; assay: SPR competition, competitor 1320
Experimental: as §1

[35] = target: T1, recombinant human EGFR extracellular …; assay: SPR competition, competitor 1208
Experimental: as §1

B1: antibody 1042 (antibody, human IgG1, kappa, V domains shown)
VH: QVQLQQPGAELVKPGASVKLSCKASGYTFTSHWMHWVQQRPGQGLEWIGEIHPSNGRTNYNEKFKNKATLTVDKSPSTAYMQLSSLTSEDSAVYYCARYYGYDDAMDYWGQGTSVTVSS
VL: DIVMTQAAFSNPVTLGTSASISCRSSKSLLHSNGITYLYWYLQKPGQSPQLLIYQMSNLASGVPDRFSSSGSRTDFTLRISRVEAEDVGVYYCAQNLELPYTFGGGTKLEIKR
notes: Chimeric IgG1 kappa; RA- left out of the VH entry
- % inhibition [1]: 25%
- % inhibition [2]: 81%
- % inhibition [3]: -8%
- % inhibition [4]: 110%
- % inhibition [5]: 7%
- % inhibition [6]: 103%
- % inhibition [7]: -4%
- % inhibition [8]: 14%
- % inhibition [9]: 83%
- % inhibition [10]: -7%
- % inhibition [11]: 10%
- % inhibition [12]: 93%
- % inhibition [13]: 107%
- % inhibition [14]: 107%
- % inhibition [15]: 15%
- % inhibition [16]: 24%
- binding result [17]: binds
- % inhibition [18]: -7%
- % inhibition [19]: 0%
- % inhibition [20]: -29%
- % inhibition [21]: -6%

B2: antibody 1254 (antibody, human IgG1, kappa, V domains shown)
VH: EVQLVESGGGLVKPGGSLKLSCAASGFAYSTYDMSWVRQTPEKRLEWVAYISSGGDAAYYPDTVKGRFTISRDNAKNTLYLQMSSLKSEDTAMYYCARSRYGNYGDAMDYWGQGTSVTVSS
VL: DVVMTQTPLSLPVSLGDQASISCRSSQSLVHSNGNTYLHWYLQKPGQSPKLLLYKVSNRFSGVPDRFSGSGSGTDFTLKISRVESEDLGVYFCSQNTHVYTFGGGTKLEIKR
notes: Chimeric IgG1 kappa; also called mAb 1254
- % inhibition [1]: 106%
- % inhibition [6]: 96%
- % inhibition [22]: 102%
- % inhibition [23]: 0%
- Kd [24]: 12.7 nM
- koff [24]: 0.001 s⁻¹
- kon [24]: 81000 M⁻¹ s⁻¹
- t1/2 [24]: 11.3 min
- % inhibition [9]: 29%
- % inhibition [25]: 6%
- % inhibition [12]: 5%
- % inhibition [26]: -2%
- % inhibition [27]: 3%
- % inhibition [13]: 44%
- % inhibition [28]: 7%
- % inhibition [29]: 4%
- % inhibition [30]: 6%
- % inhibition [31]: 82%
- binding result [17]: binds
- % inhibition [32]: 6%
- % inhibition [33]: 99%
- % inhibition [34]: 6%
- % inhibition [35]: 108%

B3: antibody 1277 (antibody, human IgG1, kappa, V domains shown)
VH: EVQLVESGGGLVKPGESLKLSCAASGFAFSYSDMSWVRQTPEKRLEWVAYMSSAGDVTFYSDTVKGRFTISRDNAKNTLYLQVSSLKSEDTAIYYCVRHRDVAMDYWGQGTSVTVSS
VL: DVVMTQTPLSLPVSLGDQASISCRSSQSLVHSNGNTYLHWYLQKPGQSPKLLIYKVSNRFSGVPDRFSGSGSGTDFTLKISRVEAEDLGVYFCSQSTHVPTFGGGTKLEIKR
notes: Chimeric IgG1 kappa; also called clone 1277
- binding result [17]: binds
